What is called IC50 is the concentration that inhibits the measured activity by half. Lower therefore signals greater potency. A word on the Kd: it is the concentration at which binding is half-saturated. The term koff denotes the first-order rate constant of dissociation. The KD is the concentration at which binding is half-saturated.

Residue numbers refer to the chain shown, from its start. In names and notes the source's numbering stands.

Experiment [1] concerns the target T1, human ILT4 expressed on cells (human, UniProt Q8N423 22-597). The experiment is described as follows: cell-based or functional assay.
In experiment [2] the target is T1, human ILT4 expressed on cells. The experiment is described as follows: flow cytometry on ILT4-CHO cells, unlabelled mAb titrated; competitor AF647-Hz156.03-LALA. How it is done:
(§1) Competition binding assays were performed. […] Binding activities were measured by flow cytometry.
Anti-human ILT4 mAbs at various concentrations (0-15 μg/ml) were incubated with ILT4-CHO cells. Cells were washed and stained with AF647-Hz156.03-LALA. Cells were analyzed by flow cytometry.
In general terms: Flow cytometry measures light scatter and fluorescence of single cells or particles in a stream.

For experiment [3] the target is unchanged. As to the kind of experiment: flow cytometry, blockade of PE-HLA-G tetramer binding to ILT4-CHO cells, Experiment 3.
Experiment [4] has the same target. As to the kind of experiment: flow cytometry on ILT4-CHO cells, unlabelled mAb titrated; competitor AF647-Hz45.01-LALA. How it is done: as §1
Anti-human ILT4 mAbs at various concentrations (0-15 μg/ml) were incubated with ILT4-CHO cells. Cells were washed and stained with AF647-Hz45.01-LALA. Cells were analyzed by flow cytometry.

The target is the same in experiment [5]. As to the kind of experiment: flow cytometry, blockade of PE-HLA-G tetramer binding to ILT4-CHO cells, Experiment 2.
Experiment [6] deals with T2, recombinant human ILT4 (LILRB2) (human, UniProt Q8N423 22-460).
T2 construct: Bought protein (Acro Biosystems or R&D Systems); also called ILTR4
As to the kind of experiment: SPR, high resolution kinetics, triplicate, LALA antibody.

Experiment [7] concerns the target T2, recombinant human ILT4 (LILRB2). As to the kind of experiment: SPR, high resolution kinetics; reference Hz156. (In general: In SPR one partner is held on a chip, and binding of the other changes the refractive index at the surface.)
Experiment [8] deals with T1, human ILT4 expressed on cells. As to the kind of experiment: cell-based or functional assay. The source holds these as a separate data set.
Experiment [9] has as its target T2, recombinant human ILT4 (LILRB2). The experiment is described as follows: SPR, Biacore 8K, mAb captured on anti-human Fc, LILRB2 at 100 nM; legend: +++ binding (1-2 nM KD). How it is done:
(§2) SPR was used to determine the specificity of four humanized anti-ILT4 mAbs for binding to LILRB2 and to determine any cross-reactivity with nine other LILRA and LILRB family members. LILR proteins were purchased from Acro Biosystems or R&D Systems, with sequence provided below. The studies were performed with a Biacore 8K instrument using a CM4 sensor chip with a running buffer of HBS-P+, 100 μg/mL BSA. Anti-human Fc specific capture surfaces were prepared using standard amine coupling chemistry. MAb was captured to flow cell 2 with flow cell 1 serving as the reference flow cell. Each of the nine family members and LILRB2 were injected at 100 nM at 30 μL/min for 90 sec with 240 sec of dissociation. […] All sensorgrams were doubled-referenced during processing of the data.

The target of experiment [10] is T1, human ILT4 expressed on cells. As to the kind of experiment: flow cytometry, blockade of PE-HLA-A tetramer (5 ug/ml) binding to ILT4-CHO cells, Experiment 1 (table title prints HLA-G).
Experiment [11] shares this target. As to the kind of experiment: flow cytometry, blockade of PE-HLA-G tetramer binding to ILT4-CHO cells, Experiment 1.
Experiment [12] addresses T2, recombinant human ILT4 (LILRB2). As to the kind of experiment: KinExA, solution equilibrium, n-curve analysis. How it is done:
Kinetic Exclusion Assay (KinExA®) was performed to measure the equilibrium binding affinity and kinetics between human ILT4 and four humanized LALA-Fc modified antibodies in solution. For affinity analysis, the equilibrium dissociation constant, KD, was experimentally determined and reflects the strength of the binding interaction. The rate of association, kₒₙ, was also experimentally determined, while the rate of dissociation, koff, is calculated based on the following equation: koff=KD×kₒₙ
The binding affinity (KD), association (kₒₙ), and dissociation rate constants (koff) were measured for 4 different Humanized LALA IgG antibodies to ILT4 using KinExA. An n-curve analysis of at least two different curves, run at two different CBP concentrations, was used to determine the KD of the interactions The ILT4 was used as the concentration reference for all curves. All of the binding systems have low error and well defined 95% confidence intervals giving confidence to the measurements: […]

Experiment [13] shares this target. As to the kind of experiment: SPR, Biacore T200, medium resolution; koff held at its limit of 4.27e-5 s^-1. In short, it runs like this: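 Mouse, chimeric or humanized mAbs captured on anti-Fc surfaces (CM4 chip); ILT4 injected at 101 to 0.79 nM, 2-fold series, 90 s association, 1200 s dissociation. Run at 25° C in HBS-P+ pH 7.4 with 100 μg/ml BSA; double-referenced global 1:1 fit with mass-transport term, KD=koff/kon.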

The target is the same in experiment [14]. As to the kind of experiment: SPR, Biacore 8K, mAb captured on anti-human Fc, LILRB2 at 100 nM; legend: ++++ tight binding (<100 pM KD). How it is done: as §2

T2 sequence (Q8N423 other isoform, or with tags, fused parts or gaps limits assumed): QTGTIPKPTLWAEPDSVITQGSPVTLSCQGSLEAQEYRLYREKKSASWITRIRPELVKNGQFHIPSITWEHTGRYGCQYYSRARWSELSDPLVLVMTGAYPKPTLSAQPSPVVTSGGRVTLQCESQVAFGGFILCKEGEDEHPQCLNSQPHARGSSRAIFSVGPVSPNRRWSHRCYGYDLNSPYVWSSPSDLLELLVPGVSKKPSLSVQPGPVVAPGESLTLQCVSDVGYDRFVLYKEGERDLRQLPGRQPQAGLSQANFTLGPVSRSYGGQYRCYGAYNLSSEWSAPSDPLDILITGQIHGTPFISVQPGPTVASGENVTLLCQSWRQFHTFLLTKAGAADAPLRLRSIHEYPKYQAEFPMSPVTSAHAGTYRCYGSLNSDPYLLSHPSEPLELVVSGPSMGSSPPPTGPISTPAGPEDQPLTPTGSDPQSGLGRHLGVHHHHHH
T1 sequence (Q8N423 22-597): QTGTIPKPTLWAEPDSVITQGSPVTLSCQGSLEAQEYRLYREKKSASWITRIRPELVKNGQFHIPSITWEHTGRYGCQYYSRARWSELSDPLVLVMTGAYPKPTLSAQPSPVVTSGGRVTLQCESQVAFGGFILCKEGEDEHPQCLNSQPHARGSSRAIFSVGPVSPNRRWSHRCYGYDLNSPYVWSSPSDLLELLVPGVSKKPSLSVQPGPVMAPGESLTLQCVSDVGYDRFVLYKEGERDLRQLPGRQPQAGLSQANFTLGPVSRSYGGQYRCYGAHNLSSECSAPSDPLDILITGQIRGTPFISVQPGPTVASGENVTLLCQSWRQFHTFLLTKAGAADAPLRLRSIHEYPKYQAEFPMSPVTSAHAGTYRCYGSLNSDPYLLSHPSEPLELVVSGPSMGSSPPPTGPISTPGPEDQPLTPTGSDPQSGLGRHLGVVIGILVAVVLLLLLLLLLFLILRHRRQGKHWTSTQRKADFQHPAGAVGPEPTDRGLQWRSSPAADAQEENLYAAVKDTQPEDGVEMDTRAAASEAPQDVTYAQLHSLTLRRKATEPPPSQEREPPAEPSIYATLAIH

B1: Hz45.01-LALA (antibody, human IgG1, kappa, L234A L235A, V domains shown)
VH: QVQLVQSGAEVKKPGASVKVSCKASGYTFTDYYMNWVRQAPGQRLEWIGDINPNNGGTSYNQKFKGRATITVDTSASTAYMELSSLRSEDTAVYYCARGGAELTGTYWYFDVWGQGTTVTVSS
VL: DIQMTQSPSSLSASVGDRVTITCRASENIYSNLAWYQQKPGKAPKVLVYGATNLADGVPSRFSGSGSGTEYTLTISSLQPEDFATYYCQHFWDSPFTFGGGTKVEIKR
notes: Humanized L45S4, human IgG1 L234A/L235A, kappa; also called Humanized 45_01; Hu IgG 45_01 LALA
On to B1, for which the “EC50 value of IL-6 production, donor 4” value in experiment [1] was 0.00603 µg/mL. In addition, the “EC50 value of IL-6 production, donor 5” value in [1] is 0.0159 µg/mL. In addition, the IC50 came to 0.381 µg/mL in experiment [2]; 0.185 µg/mL in [3]; 0.31 µg/mL in experiment [4]; 0.119 µg/mL in experiment [5]; 0.106 µg/mL in experiment [10]; 0.198 µg/mL in experiment [11]. Moreover, the values for the dissociation constant Kd in experiment [6] and in experiment [12] were 0.154 nM and 0.0851 nM, respectively. Also, in experiment [6], the koff came out at 0.000531 s⁻¹. Also, the “fold faster off-rate than Hz156” value in experiment [7] is 29 fold. Further, the “EC50 value of TNFa production, donor 4” value in experiment [8] came to 0.0138 µg/mL. Further, the “EC50 value of TNFa production, donor 5” value in [8] came to 0.0185 µg/mL. For the same molecule, the dissociation constant KD in experiment [9] is 1 to 2 nM.

B2: Hz156.03-LALA (antibody, human IgG1, kappa, L234A L235A, V domains shown)
VH: QVQLVQSGAEVKKPGSSVKVSCKASGYTFTDYYMNWVRQAPGQGLEWIARIYPGVYRTHYNEKFKDRVTLTADKSTSTAYMELSSLRSEDTAVYYCARSGYYGGTYEEDAMDYWGQGTTVTVSS
VL: B1 VL with V46L, G50A, N53S, E70D, H90N, S94T, F96Y, G100Q
notes: Humanized L156S3, human IgG1 L234A/L235A, kappa
For the molecule B2, the “EC50 value of IL-6 production, donor 4” value in experiment [1] was 0.0082 µg/mL. In addition, the “EC50 value of IL-6 production, donor 5” value in [1] is 0.0213 µg/mL. Also, the equilibrium dissociation constant (Kd) in [13] is not above 0.086 nM; in experiment [6], 0.0057 nM; in experiment [12], 0.00916 nM. Also, the results for the koff in experiment [13] and in [6] were not above 4.27e-05 s⁻¹ and 1.83e-05 s⁻¹, respectively. The IC50 in experiment [2] amounted to 0.422 µg/mL; in [3], 0.233 µg/mL; in experiment [4] it was 0.245 µg/mL; in experiment [5], 0.14 µg/mL; in [10] it was 0.149 µg/mL; in experiment [11], 0.19 µg/mL. The “EC50 value of TNFa production, donor 4” value in [8] stood at 0.00724 µg/mL. Also, in experiment [8], the “EC50 value of TNFa production, donor 5” value came to 0.0236 µg/mL. Further, in experiment [14], the equilibrium dissociation constant (KD) is less than 0.1 nM.

(Values after patent US20260167714A1 (COHERUS BIOSCIENCES, published 2026).)
